# Article PMC3791895 (mBio, 2013)
# B1: Enterococcus faecalis FabI enoyl-ACP reductase (enzyme, UniProt Q820V5 1-250, looked up)
# chain: MFLQNKNVVVMGVANKKSIAWGCAKALKDQGANVIYTYQNERMKKQVVKLADENDLLVECDVASDASIQAAFETIKNEVGTIDGLVHAIAFAKKEELSGNVSDITRDGFLLAQDISSYSLLAVTHYAKPLLNPGSGIVTLTYLGSERAIPNYNMMGIAKASLETAVKYLAFELAADKIRVNGISAGAIKTLAVTGVKDYDQLISISNERTPDKTGVTIEEVGNTCAFLVSDLASGVVGDIIYVDKGVHLT
# Target: the molecule itself
# Assay: SEC
protein,measurement,value
B1,stoichiometry N,2
